According to publication PMC5469197, “ANGUSTIFOLIA, a Plant Homolog of CtBP/BARS Localizes to Stress Granules and Regulates Their Formation” (Frontiers in Plant Science, 2017):

Tests used:
Assay in all cases: co-IP; LUMIER in HEK293TN cells: Prot-A fusion co-transfected with Renilla luciferase fusion (AN always the luciferase fusion with the interactors); luciferase activity before (input) and after pulldown; percentage pulldown = pulldown/input x 100; empty vectors as negative control; positive if more than two times the background
[1] = target: PROTEIN KINASE SU… PROTEIN (AIK1), Prot-A fusion (Arabidopsis thaliana)
PROTEIN KINASE SU… PROTEIN (AIK1), Prot-A fusion (Arabidopsis thaliana), sequence (main, as listed by the source): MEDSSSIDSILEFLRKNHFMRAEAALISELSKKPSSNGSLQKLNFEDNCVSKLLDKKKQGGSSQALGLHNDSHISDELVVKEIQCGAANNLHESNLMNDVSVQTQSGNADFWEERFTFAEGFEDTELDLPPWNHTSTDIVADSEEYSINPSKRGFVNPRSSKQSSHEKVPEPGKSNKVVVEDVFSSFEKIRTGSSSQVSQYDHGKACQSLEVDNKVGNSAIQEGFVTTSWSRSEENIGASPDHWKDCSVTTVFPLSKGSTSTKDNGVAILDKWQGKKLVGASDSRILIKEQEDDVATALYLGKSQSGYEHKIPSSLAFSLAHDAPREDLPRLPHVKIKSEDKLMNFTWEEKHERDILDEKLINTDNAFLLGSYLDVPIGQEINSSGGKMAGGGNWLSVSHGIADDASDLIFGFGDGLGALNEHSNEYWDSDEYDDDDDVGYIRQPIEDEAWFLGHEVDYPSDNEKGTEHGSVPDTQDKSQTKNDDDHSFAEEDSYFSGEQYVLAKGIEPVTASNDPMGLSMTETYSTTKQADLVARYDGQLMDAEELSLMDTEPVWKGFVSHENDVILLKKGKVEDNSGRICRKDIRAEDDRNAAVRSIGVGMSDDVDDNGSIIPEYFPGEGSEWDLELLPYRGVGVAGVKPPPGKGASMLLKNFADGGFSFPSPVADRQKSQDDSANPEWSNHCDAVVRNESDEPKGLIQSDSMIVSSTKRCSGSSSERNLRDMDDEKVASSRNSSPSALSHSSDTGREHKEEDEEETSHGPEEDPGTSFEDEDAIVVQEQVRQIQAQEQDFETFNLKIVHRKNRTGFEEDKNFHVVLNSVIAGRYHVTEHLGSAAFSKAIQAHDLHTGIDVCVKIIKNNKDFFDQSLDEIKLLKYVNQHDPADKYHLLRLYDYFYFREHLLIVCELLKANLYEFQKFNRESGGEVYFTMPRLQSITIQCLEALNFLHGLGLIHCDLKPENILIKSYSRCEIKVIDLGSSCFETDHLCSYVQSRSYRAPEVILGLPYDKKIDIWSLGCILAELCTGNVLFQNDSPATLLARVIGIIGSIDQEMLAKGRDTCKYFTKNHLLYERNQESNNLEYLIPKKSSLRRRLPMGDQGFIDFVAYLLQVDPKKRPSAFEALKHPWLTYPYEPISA

[2] = target: T1, EUKARYOTIC INITIATION FACTOR 4E1 (EIF4E1), Prot-A fusion (Arabidopsis thaliana, UniProt O23252 1-235); conditions: partners not purified
T1 construct: Eukaryotic initiation factor 4E1, Arabidopsis thaliana, AT4G18040; CDS amplified from Col-0 cDNA; source: HEK293TN cells, transfected; not shown: Protein A (Staphylococcus aureus), N-terminal, kept
T1 sequence (looked up): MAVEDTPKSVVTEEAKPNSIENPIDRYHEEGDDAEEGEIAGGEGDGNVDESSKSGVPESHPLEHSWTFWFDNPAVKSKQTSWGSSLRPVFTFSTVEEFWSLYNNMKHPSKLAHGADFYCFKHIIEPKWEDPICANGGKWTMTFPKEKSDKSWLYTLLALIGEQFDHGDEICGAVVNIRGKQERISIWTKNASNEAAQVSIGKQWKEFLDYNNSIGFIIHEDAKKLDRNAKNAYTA

[3] = target: T2, TANDEM CCCH ZINC FINGER (TZF) ATC3H14, Prot-A fusion (Arabidopsis thaliana, UniProt Q9C9N3 1-310); conditions: partners not purified
T2 construct: Tandem CCCH zinc finger protein ATC3H14, Arabidopsis thaliana, AT1G66810; CDS amplified from Col-0 cDNA; source: HEK293TN cells, transfected; not shown: Protein A (Staphylococcus aureus), N-terminal, kept
T2 sequence (looked up): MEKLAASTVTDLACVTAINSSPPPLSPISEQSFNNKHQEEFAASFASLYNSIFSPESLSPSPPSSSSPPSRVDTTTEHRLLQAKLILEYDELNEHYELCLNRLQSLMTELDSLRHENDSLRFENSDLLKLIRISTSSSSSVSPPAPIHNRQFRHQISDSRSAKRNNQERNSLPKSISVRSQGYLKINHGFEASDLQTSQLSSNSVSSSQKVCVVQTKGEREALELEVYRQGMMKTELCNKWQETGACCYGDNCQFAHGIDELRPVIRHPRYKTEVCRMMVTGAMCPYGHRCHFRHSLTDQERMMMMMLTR

B1: AN, Renilla luciferase fusion (LUMIER) (natural protein, Arabidopsis thaliana, UniProt O23702 1-636, looked up)
chain: MSKIRSSATMPHRDQPSPASPHVVTLNCIEDCALEQDSLAGVAGVEYVPLSRIADGKIESATAVLLHSLAYLPRAAQRRLRPHQLILCLGSADRAVDSTLAADLGLRLVHVDTSRAEEIADTVMALILGLLRRTHLLSRHALSASGWLGSLQPLCRGMRRCRGMVLGIVGRSVSARYLASRSLAFKMSVLYFDVPEGDEERIRPSRFPRAARRMDTLNDLLAASDVISLHCALTNDTVQILNAECLQHIKPGAFLVNTGSCQLLDDCAVKQLLIDGTIAGCALDGAEGPQWMEAWVKEMPNVLILPRSADYSEEVWMEIREKAISILHSFFLDGVIPSNTVSDEEVEESEASEEEEQSPSKHEKLAIVESTSRQQGESTLTSTEIVRREASELKESLSPGQQHVSQNTAVKPEGRRSRSGKKAKKRHSQQKYMQKTDGSSGLNEESTSRRDDIAMSDTEEVLSSSSRCASPEDSRSRKTPLEVMQESSPNQLVMSSKKFIGKSSELLKDGYVVALYAKDLSGLHVSRQRTKNGGWFLDTLSNVSKRDPAAQFIIAYRNKDTVGLRSFAAGGKLLQINRRMEFVFASHSFDVWESWSLEGSLDECRLVNCRNSSAVLDVRVEILAMVGDDGITRWID
notes: ANGUSTIFOLIA (AN), Arabidopsis thaliana, AT1G01510; CDS amplified from Col-0 cDNA; in the dimerisation test the second copy must have been the N-terminal protein A fusion (surmised from the LUMIER format); also called wild-type AN; source: HEK293TN cells, transfected; not shown: Renilla reniformis luciferase, N-terminal, kept
- fold change from background [1]: 223 fold
- percentage pulldown [1]: 36%
- fold change from background [2]: 2.83 fold
- percentage pulldown [2]: 0.27%
- fold change from background [3]: 4.92 fold
- percentage pulldown [3]: 0.47%
